Measurements taken from patent publication US20250262210A1 (TRUSTEES OF COLUMBIA UNIVERSITY IN THE CITY OF NEW YORK, published 2025).

Key:
Assay in all cases: IP/MS, LZTR1 R810W-FLAG, U87
THADA = THADA (human, UniProt Q6YHU6 1-1953, limits assumed)
Outline: (§1)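 Gel slices were reduced with 5 mM DTT, alkylated with 11 mM IAA and digested overnight at 37° C. with trypsin. Peptides were analysed on an Orbitrap Fusion Tribrid by LC-MS/MS.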

SBNO2 = target: T1, SBNO2 (human, UniProt Q9Y2G9 1-1366, limits assumed)
T1 sequence (looked up): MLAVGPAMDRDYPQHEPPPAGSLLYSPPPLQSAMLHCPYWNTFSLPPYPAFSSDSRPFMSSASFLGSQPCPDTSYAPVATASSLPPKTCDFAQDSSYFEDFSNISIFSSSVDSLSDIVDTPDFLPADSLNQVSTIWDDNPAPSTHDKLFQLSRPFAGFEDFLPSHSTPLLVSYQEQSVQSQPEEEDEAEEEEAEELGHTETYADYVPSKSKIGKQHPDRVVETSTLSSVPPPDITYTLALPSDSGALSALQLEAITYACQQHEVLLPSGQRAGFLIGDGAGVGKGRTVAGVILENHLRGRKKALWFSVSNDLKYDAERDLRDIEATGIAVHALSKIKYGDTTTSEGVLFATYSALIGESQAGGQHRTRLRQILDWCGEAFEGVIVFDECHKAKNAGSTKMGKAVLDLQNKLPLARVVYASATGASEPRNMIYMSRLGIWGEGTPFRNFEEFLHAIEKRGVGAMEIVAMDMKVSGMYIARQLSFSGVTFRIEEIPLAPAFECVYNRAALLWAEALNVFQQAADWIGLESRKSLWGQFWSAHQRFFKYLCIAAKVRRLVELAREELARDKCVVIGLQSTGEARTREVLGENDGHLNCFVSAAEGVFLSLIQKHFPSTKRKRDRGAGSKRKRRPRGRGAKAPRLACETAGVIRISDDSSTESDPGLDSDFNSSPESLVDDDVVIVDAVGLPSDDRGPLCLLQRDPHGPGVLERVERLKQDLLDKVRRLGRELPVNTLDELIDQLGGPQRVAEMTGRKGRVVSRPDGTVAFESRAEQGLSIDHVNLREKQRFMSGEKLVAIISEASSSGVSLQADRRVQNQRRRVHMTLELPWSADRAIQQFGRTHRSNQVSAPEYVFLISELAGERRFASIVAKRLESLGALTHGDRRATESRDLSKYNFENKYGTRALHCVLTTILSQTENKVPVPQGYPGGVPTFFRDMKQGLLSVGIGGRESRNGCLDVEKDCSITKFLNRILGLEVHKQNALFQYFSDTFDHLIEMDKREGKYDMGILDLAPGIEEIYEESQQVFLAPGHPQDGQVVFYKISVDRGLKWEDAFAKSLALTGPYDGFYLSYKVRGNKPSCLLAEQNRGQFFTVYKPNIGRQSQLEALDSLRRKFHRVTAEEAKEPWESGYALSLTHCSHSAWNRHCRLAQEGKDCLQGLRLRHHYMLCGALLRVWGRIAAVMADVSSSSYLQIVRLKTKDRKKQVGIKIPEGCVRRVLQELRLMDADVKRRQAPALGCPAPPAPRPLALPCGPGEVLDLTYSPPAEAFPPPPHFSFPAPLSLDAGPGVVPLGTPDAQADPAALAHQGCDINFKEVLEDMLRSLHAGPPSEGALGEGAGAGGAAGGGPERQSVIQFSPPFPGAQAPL
Outline: as §1

MTOR = MTOR (human, UniProt P42345 1-2549)
Outline: as §1

TRIM16 = TRIM16 (human, UniProt O95361 1-564, limits assumed)
Outline: as §1

RUSC2 = RUSC2 (human, UniProt Q8N2Y8 1-1516)
Sequence of RUSC2 (Q8N2Y8 whole entry): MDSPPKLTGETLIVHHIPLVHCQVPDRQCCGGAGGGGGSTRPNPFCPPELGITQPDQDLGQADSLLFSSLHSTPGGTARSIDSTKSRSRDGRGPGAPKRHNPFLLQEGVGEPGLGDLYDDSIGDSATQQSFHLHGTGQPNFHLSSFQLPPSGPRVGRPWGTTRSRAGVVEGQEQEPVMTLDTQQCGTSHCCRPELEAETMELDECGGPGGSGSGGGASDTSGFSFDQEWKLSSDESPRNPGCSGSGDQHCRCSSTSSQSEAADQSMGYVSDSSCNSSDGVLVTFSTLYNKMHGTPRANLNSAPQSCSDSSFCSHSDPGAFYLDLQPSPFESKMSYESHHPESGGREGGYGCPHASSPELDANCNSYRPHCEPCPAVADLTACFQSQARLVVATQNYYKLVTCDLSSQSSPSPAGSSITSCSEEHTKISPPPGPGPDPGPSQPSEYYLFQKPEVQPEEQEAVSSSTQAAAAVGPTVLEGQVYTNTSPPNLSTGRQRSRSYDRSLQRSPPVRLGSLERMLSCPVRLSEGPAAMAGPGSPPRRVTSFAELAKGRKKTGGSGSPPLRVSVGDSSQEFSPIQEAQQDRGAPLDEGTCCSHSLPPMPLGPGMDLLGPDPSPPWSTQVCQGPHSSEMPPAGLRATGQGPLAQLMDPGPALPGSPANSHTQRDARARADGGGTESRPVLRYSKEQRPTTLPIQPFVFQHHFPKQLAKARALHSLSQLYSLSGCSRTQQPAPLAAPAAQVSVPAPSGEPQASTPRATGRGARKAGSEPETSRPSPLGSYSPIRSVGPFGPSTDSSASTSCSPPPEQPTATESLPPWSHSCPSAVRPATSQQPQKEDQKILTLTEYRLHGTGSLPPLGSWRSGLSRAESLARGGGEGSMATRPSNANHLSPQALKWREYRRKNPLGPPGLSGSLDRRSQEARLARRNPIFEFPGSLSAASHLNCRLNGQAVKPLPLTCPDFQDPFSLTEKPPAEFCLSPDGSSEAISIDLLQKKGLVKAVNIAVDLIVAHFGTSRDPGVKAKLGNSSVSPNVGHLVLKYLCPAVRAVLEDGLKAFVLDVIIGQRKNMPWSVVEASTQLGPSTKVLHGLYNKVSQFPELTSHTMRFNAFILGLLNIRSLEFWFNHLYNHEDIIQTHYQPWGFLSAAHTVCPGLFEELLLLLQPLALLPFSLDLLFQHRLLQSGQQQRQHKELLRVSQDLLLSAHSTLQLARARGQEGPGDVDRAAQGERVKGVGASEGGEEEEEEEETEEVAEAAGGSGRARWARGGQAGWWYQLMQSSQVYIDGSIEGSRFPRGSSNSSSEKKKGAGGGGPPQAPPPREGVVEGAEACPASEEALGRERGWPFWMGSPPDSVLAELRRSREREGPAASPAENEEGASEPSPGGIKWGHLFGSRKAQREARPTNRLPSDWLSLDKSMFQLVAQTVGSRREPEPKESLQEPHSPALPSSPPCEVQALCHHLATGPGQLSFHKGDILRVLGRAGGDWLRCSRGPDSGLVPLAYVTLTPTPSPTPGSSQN
Outline: as §1

ASXL1 = ASXL1 (human, UniProt Q8IXJ9 1-1541, limits assumed)
Sequence of ASXL1 (Q8IXJ9 whole entry): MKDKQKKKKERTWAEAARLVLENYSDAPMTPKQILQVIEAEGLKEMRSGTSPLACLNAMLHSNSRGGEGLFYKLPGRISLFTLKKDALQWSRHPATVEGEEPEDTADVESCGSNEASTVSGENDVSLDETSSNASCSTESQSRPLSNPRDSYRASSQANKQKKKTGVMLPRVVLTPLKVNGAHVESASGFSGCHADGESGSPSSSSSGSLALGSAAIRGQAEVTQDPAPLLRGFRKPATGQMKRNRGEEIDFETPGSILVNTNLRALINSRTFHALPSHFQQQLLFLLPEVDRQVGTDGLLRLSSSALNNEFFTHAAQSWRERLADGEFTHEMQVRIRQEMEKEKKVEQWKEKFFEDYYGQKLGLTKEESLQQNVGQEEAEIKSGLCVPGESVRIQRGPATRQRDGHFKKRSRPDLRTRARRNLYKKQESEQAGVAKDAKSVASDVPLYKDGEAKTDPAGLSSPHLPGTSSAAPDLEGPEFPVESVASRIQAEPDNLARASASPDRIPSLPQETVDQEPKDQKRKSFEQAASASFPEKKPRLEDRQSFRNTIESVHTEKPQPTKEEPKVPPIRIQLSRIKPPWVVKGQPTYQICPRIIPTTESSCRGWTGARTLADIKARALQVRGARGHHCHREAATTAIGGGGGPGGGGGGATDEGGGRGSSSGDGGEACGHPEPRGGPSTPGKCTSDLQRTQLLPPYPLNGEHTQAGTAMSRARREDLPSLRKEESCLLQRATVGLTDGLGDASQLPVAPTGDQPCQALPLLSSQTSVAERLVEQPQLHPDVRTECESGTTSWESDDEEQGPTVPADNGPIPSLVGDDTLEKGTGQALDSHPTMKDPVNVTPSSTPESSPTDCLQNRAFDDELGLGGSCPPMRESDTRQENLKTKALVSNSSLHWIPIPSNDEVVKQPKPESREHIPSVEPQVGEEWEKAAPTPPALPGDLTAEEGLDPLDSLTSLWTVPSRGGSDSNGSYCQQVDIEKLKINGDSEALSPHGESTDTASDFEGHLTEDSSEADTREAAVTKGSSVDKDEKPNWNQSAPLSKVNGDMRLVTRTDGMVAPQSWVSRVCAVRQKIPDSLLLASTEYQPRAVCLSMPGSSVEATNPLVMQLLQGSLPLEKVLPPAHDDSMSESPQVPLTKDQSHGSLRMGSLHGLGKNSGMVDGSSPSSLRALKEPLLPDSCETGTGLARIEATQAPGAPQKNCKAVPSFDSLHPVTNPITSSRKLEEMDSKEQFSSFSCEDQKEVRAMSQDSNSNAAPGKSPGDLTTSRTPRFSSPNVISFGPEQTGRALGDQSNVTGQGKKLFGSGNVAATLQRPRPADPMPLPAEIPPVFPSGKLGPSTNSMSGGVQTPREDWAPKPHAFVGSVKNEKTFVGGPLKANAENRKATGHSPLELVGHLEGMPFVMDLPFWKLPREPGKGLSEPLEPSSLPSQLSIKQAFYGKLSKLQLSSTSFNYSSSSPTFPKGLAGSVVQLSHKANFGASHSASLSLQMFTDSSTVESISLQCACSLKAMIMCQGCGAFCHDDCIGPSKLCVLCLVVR
Outline: as §1

ARHGAP31 = ARHGAP31 (human, UniProt Q2M1Z3 1-1444)
Sequence of ARHGAP31 (Q2M1Z3 whole entry): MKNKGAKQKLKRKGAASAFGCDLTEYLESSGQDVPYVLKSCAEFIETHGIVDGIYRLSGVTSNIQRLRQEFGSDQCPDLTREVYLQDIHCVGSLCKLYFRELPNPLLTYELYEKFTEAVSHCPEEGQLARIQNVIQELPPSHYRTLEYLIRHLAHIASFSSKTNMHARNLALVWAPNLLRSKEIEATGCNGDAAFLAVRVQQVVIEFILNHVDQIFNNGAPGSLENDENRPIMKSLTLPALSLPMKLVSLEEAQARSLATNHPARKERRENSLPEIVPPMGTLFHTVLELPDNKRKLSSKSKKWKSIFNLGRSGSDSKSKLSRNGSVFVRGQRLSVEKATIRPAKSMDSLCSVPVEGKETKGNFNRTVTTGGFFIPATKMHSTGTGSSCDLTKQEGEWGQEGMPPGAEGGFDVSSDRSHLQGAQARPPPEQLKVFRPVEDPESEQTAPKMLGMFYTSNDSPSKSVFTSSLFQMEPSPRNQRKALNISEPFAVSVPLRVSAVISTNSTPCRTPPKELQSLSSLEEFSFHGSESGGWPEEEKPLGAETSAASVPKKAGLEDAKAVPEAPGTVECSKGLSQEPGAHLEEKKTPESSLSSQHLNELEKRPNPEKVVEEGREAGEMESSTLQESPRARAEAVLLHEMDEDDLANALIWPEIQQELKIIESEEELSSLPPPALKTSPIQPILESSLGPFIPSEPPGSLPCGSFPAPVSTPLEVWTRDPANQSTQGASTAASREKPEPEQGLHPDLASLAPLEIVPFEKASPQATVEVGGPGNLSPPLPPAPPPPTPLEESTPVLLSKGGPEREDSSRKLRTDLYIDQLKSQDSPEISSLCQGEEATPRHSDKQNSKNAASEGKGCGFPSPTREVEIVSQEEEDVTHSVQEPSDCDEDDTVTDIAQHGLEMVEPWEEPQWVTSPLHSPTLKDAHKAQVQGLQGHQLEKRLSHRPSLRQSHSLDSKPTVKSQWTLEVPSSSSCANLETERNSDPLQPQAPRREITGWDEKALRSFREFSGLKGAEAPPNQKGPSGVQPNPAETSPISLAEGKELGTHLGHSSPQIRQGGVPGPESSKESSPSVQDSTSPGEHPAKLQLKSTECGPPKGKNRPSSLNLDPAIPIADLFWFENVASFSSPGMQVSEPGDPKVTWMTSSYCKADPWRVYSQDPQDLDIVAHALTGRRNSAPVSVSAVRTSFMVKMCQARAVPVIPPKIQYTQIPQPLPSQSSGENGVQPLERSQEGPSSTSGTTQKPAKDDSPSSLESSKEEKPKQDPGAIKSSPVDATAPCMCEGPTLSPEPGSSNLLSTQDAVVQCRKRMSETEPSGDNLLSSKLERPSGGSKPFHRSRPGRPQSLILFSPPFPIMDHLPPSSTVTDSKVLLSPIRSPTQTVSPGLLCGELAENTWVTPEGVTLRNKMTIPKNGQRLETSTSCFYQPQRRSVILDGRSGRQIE
Outline: as §1

Measured: binding result

B1: LZTR1 R810W-FLAG (other, human, UniProt Q8N653 1-840, looked up)
chain: MAGPGSTGGQIGAAALAGGARSKVAPSVDFDHSCSDSVEYLTLNFGPFETVHRWRRLPPCDEFVGARRSKHTVVAYKDAIYVFGGDNGKTMLNDLLRFDVKDCSWCRAFTTGTPPAPRYHHSAVVYGSSMFVFGGYTGDIYSNSNLKNKNDLFEYKFATGQWTEWKIEGRLPVARSAHGATVYSDKLWIFAGYDGNARLNDMWTIGLQDRELTCWEEVAQSGEIPPSCCNFPVAVCRDKMFVFSGQSGAKITNNLFQFEFKDKTWTRIPTEHLLRGSPPPPQRRYGHTMVAFDRHLYVFGGAADNTLPNELHCYDVDFQTWEVVQPSSDSEVGGAEVPERACASEEVPTLTYEERVGFKKSRDVFGLDFGTTSAKQPTQPASELPSGRLFHAAAVISDAMYIFGGTVDNNIRSGEMYRFQFSCYPKCTLHEDYGRLWESRQFCDVEFVLGEKEECVQGHVAIVTARSRWLRRKITQARERLAQKLEQEAAPVPREAPGVAAGGARPPLLHVAIREAEARPFEVLMQFLYTDKIKYPRKGHVEDVLLIMDVYKLALSFQLCRLEQLCRQYIEASVDLQNVLVVCESAARLQLSQLKEHCLNFVVKESHFNQVIMMKEFERLSSPLIVEIVRRKQQPPPRTPLDQPVDIGTSLIQDMKAYLEGAGAEFCDITLLLDGHPRPAHKAILAARSSYFEAMFRSFMPEDGQVNISIGEMVPSRQAFESMLRYIYYGEVNMPPEDSLYLFAAPYYYGFYNNRLQAYCKQNLEMNVTVQNVLQILEAADKTQALDMKRHCLHIIVHQFTKVSKLPTLWSLSQQLLLDIIDSLASHISDKQCAELGADI
notes: Stably expressed in U87 cells by lentivirus; also called LZTR1-FLAG-R810W; LZTR1 RW; not shown: FLAG tag
binds: THADA | SBNO2 | MTOR | TRIM16 | RUSC2 | ASXL1 | ARHGAP31
